Source: the DeepSol protein solubility set

Experiment: soluble on expression in E. coli; label from the status in PepcDB or PDB records

Soluble on expression in E. coli, soluble:
MGSDKIHHHHHHMKTDTEWLLCDFHVHTNMSDGHLPLGEVVDLFGKHGVDVVSITDHIVDRRTLEQRKRNGEPLGAITEDKFQDYLKRLWREQKRAWEEYGMILIPGVEITNNTDLYHIVAVDVKEYVDPSLPVEEIVEKLKEQNALVIAAHPDRKKQDEEHLSWYLWANMERFKDTFDAWEIANRDDLFNSVGVKKYRYVANSDFHELWHVYSWKTLVKSEKNIEAIKEAIRKNTDVAIYLMRKNRLSSLSDVI

Soluble on expression in E. coli, not soluble:
MGSDKIHHHHHHMKPRACVVVYPGSNCDRDAYHALEINGFEPSYVGLDDKLDDYELIILPGGFSYGDYLRPGAVAAREKIAFEIAKAAERGKLIMGICNGFQILIEMGLLKGALLQNSSGKFICKWVDLIVENNDTPFTNAFEKGEKIRIPIAHGFGRYVKIDDVNVVLRYVKDVNGSDERIAGVLNESGNVFGLMPHPERAVEELIGGEDGKKVFQSILNYLKR, MGSDKIHHHHHHMKPRNESVILLHGLARTRGSMEKMEHALSAKGYQCVNLGYPSTQFDIETLAGEHIDKALSQCRGERVHFVTHSMGGILVRQYLSQHTLPALGRVVMLGPPNRGSEVVDSLKDFPGFKWINGPAGLQLGTEEESVPNRLGKAHFEVGVIAGSRSVNLLLSTLLPWPNDGKVSVARTHLEGMRDHISLAVTHPFMMNNPSVIAQTAYFLAHGRFQR, MGSDKIHHHHHHMKQGIEFIKFNPTQNMTILVETNDPIGEYKHIAEKIMSYDSVYAEQVGFIEKPLNRQAAAHLEMAGGEFCGNACMALAALIASEKGLRPTELMEIVLEVSGTDNLVMCQVERTLDEFHCQVTMPLPKQIEQKIVKYDGSEMNLIIVRYQEFIHIVIEVDDFNKIVREKAQSLAKLLGVTLGTNLIGILLYKSNTSELAPLIFVPDLDSMIWERGCGSGTASLGAYLAWKNKKEIVAKIKQPGGTIQVIATCEEEKLTSLKIEGSVSIVARGKAFIDV, MGSDKIHHHHHHMKQQYTATVVMATYNGEKNILEQLDSLKNQSKKIDEVLIWDDCSTDSTVKIIENFISENKLGETWHLQINTENLGWRKNFFNLLNAATKEIVFTCDQDDIWDASKIEVMCEAFANTDVKVLVSDYTELVEPGGLAEELKKIDSVKLPNQKAEQIIFNENNLFLRRPGCVYAIRKSFIANVNLYASEMENPVHDMAMWGSSLLSDGLYIVREELIRWRKHGQSSFKKEIDLAKKQNHFEERLNTLRRRLQRTEAAKNYLNNQPHVEEFEYKDKVLSNLIKELNMRVSLLERKKIIPILCAFFKYHHKFYFSTDIYHIMKYKIRK, MGSDKIHHHHHHMKRENLHQPFEISFSELAESLLKEHEHTFFELVYILSGTGIQWINNNMFPYHDGHLFMITPGDTHSFEIHTTTKFVDIKFNDIYIHSSVFGAENIQRLEFILQHANHQPGCILRNKVDKLLVKPMIEAIIREYINRNLYSKEIITQIINTIIIVVARNIAMFLPEQVDECSEDKSLDILQYIQANIYKTGKIRAKDISQHFGISENYLGRYIKKHTNETMQQYILNYKLKLVENRLLHSQMRICEIVEELGFTDESHLNKFFKKYRGCSPSNFRKNNLK, MGSDKIHHHHHHMKRRELLVLGGLSTIAAGMGRQWFQPVSAQAITPLPASDRPLDLRFIAVADTGTGARGQYDVAAAMERYRRANPYKLAVLAGDNIYNNGEIEKIQAVFERPYAPLLKSGVKFRAVLGNHDIRTNNGNDQVRYPGFNMTGRYYQFQEGPVAFFALDTNGNADWNKQLTWLDRALQASNAPWKVVFGHHPIYSSGFYGVNRTLLGRLVPLFKRHGVQLYISGHDHSYERTQPIDGTTYLIVGAGAGLRPVGRSSWTAQSASTLSFAGLEVYGNELRIQTFDKDSRLIDQGQIFA, MGSDKIHHHHHHMKRRLGLKLYYRRRGHVKPSLLFVIQSHKGEFVKDRLEEYLNNLKIEKKPDSRESWDSYFMRIARMVSERSTCVHRKVGAVIVKDHRILATGYNQPPSKFPHCNEIGCIRDDLEINSGEHQEICYALHAEQNALMQAAKFGIAVNGATIYVTHKPCSICARLIVNAGIKRVVYEKDYPDPLTDFFFKFTGVESVRFVGDEM, MGSDKIHHHHHHMKRTPLFEKHVELGAKMVDFAGWEMPLYYTSIFEEVMAVRKSVGMFDVSHMGEFLVKGPEAVSFIDFLITNDFSSLPDGKAIYSVMCNENGGIIDDLVVYKVSPDEALMVVNAANIEKDFNWIKSHSKNFDVEVSNISDTTALIAFQGPKAQETLQELVEDGLEEIAYYSFRKSIVAGVETLVSRTGYTGEDGFELMLEAKNAPKVWDALMNLLRKIDGRPAGLGARDVCRLEATYLLYGQDMDENTNPFEVGLSWVVKLNKDFVGKEALLKAKEKVERKLVALELSGKRIARKGYEVLKNGERVGEITSGNFSPTLGKSIALALVSKSVKIGDQLGVVFPGGKLVEALVVKKPFYRGSVRREV, MGSDKIHHHHHHMKRTYESGDKMIHTRGKAEGLREKLATILSQDYKELAVQDLKVIGTGVQNIVFRGDSEKGALAFRVPWEREVENINEDLFNSRISLQKEAELSKYCHSKGISVPRIHGLHLSAELDFLISDCVYTDHMPISAHKIGELVSKLHSMPIDDLHYEQNIREPISKYIAERIVKRIEGFNTITNCGMKLPDTKTIEHILSTADHEKSLLHMDIRPANLIGYNGEVKAIVDWDNALIGHPLLELMRIAETNEVSWEEFKDGYKNDSIFNATSHIVSLFYRLDTAVMLANLFIAHLKIEDKGVFYKERVKAIHHEIYKSL, MGSDKIHHHHHHMKSVCLKITSLISLASRITTGLSLMSVMLASPLAVAQMGKHDALLLHAARVFDGHRMRTNTSVQVVNGKVTQIGPRGSFAPDNAKVIDLGDATILPGFIELHAHLSFQHVPADTVLKHGITTIRDVGGPVHKPYGGNGTLRMLTSGPIITAPGGYPIPLTGEKNIATPVSTEKEARETVRNLIDAGAVVIKIALEPGGEPGAPWSCGHAHVHHHNHAAAGNHAHHAQPNHEPPNHEAANDAHSSHPHPNTGLGTAWPLLAERVVKAIVDEAHVNKRRVTAHIAEVKGAEIAINAGIDEWAHVPCDIIPEPLLKKAVSQGVRIVTTLDTLSKCPGVAHNTRVWREQGGELLYGAEIAHPDVPRGIDAQELMYMMQMGNMETLEVLRAATSKAGEHLGLPLLGTLLPGAPADVIAIKGDPTHNLKNLEYPDLVISGGEIVLNNFPAAF, MGSDKIHHHHHHMKTCWQILEIESTTQIDIIRQAYLARLPLCHPETDPQGFKALRQAYEEALRLAVNPVEEADDEEKDATAEHEILRAFRTLLDSESDRFQPSAWQKFIQQLNTWNMEDVDQLRWPLCAIAIEARYLSLNCASLLAERLNWHSFNDSEGMDEEEREAFLEAIQAGDCFDFLSLLEYPVALQNQTVEYYFALERCCRYHPDYVTAFLAMEGPWFIPDDAKLHRKLLRWYSSVQTGMVELIPVAKQWQAEEPESEDARYYQCAQRLYCGEGESLLADLGAYWESYPSTQADNLLLQWSKRHCPDYFALLVMVIEARSMVDAQGQPLKYVPGESARTRLLWAEILHSGKLSPLGQSFIESLFFKRKAWAWWKSRVGSETEEDSPLLDLYRVAEQVVLEAFPKQEMLARLNTRLEGGDAHPLEAIITRMLLTKVKLEPEDEDVDEPTPENHEEKNDEGEKPQSITSIIKISLTVLVIGYALGKIAMLFS, MGSDKIHHHHHHMKTKMPEMLSFISEEAVSRKMTSEEIAAHFGYDKHHFSRKFKEINGFSVVEFLSSLKVEKAIIELNEEKRILDLQEHSGFESSGSFTNTFKKYTGSSPRKYKTEMNDIFYDMKRFENDNKDKSIAHFQEKNDSFCTVTIDVPDEFEKGIIFIGLFRTLIPNHMPISGLATKNLIGNQLKNIPSGDYYLLACAISQSNNILSYFNLSNSLRGKEDEKLSFPKCSGKHYAIKLREPIPEDPPILANVGKILISCLKNTI, MGSDKIHHHHHHMKTLLGIIAGKAAQSILTKLGRGSTYPGRLALACDKDILKDLSKDYDIVVVTGTNGKTLTTALTVGILKEAFGEIITNPSGANMITGITSTFLAAKKGKSERQIAVLEIDEASLPRITTYLKPSLFVYTNIFRDQMDRYGEIYTTYQMIVDGARNAPKATILANGDSPIFSSKDIVNPVQYYGFDTAKHAPQLAHYNTEGILCPKCEHILQYRLNTYANLGDFVCLNCQFQRPTLDYQLTELTAITHQSSEFVIDGQNYKINVGGLYNIYNALAAVSVAEFFGVSPEKIKAGFNKSKAVFGRQETFTVGDKSCTLILIKNPVGASQALEMIQLADYPFSLSVLLNANYADGIDTSWIWDANFELITQMPITEINAGGVRHSEIARRLRVTGFDDTKIKQAEKLEQIIETIEKQEAKHAYILATYTAMLEFRSLLADRHVVEKEMI, MGSDKIHHHHHHMKTQSQDRWFIWQLSEELEAKIRYREYGPPDSPFTPLLFIHGYGGMIEHWNDNIPSFDDRYRIYAMDLIGFGQSGKPNVRYSLALFAAQIKAFMHLKKLEKVTLVGHSMGAASSIIYAHHNPDSVRALVLANPSGLYGDSMDGVAKIFFGLVGSPLIGEMLFAAFANPVGVSQSLTPTYYNQKKVDLNLINQFSRPLQDRGAIFSYLSPSKRPHDFMLDGLKPCNYKGDAWLLWGAEDTALPPHKIIPEFQELLPQAGAYIIPKAGHCIHHDAHETFNNRLAQLLQRLE, MGSDKIHHHHHHMKTRDKIIQASIELFNEQGERNVTTNHIAAHLAISPGNLYYHFRNKEDIILSIYEEYARSLLLETLPKVSSEVKPLDSLILYMDSVFQTTMKFRFFYSNLPVLLDKNPILREKYVEVQQSISERVSQLLISLRAADYIDFNDDELADIVSILRLINTFWVSFHQTQTIVNEVNDSVFYQGVLKILVILRPYTKAHAISELNHARDVYQQRYREEAETA, MGSDKIHHHHHHMKTVKTHITQLLHAMNKGIFEKEHPIALSLLSAISGESIFFLGPPGVAKSLIARRLKLAFDQSTAFEYLMSRFSTPDEIFGPVSISKLKDEDKYERIIEGYLPSATIVFLDEIWKAGPSIQNSLLTVINEKVYRNGQYTIQLPLKGLIAASNELPAQGEGLEALWDRFLIRYFIGNIEQEFAFDQMIASVNDMEAEIPTGLSITEEQYTDWRTQISQIKIHYTVFELIHSIKRQIEKYNIQKEEVPHSTLYISDRRWKKIISLLRTSAFLNETDTIRFSDCTLLLHCLWNEIEQIPIIEQMVSSALDECISHYLCGERTLEQKLSSIREDMKSEHSLRETKDPALQIVDTFYHQIERYPVAGNLLIFASDYQSLQKDTQKLFYVQRDKYRPVNWILKVYDHVRNRNISQSAIVSLKKGTRSVFINNQEYPLACNAGYDIAYPQEASLPFEFRFQEVIDLYHNRENELKRMTDIELTYCKEHLFMDDKQRNMVKQILNRQKEMLEIYQNEIREIAYTHGLENKEY, MGSDKIHHHHHHMKTVLDVKNLSVDFAQDGRIVHAVRGVSFHVGKGETVALVGESGSGKSVTALSSVDLLPPSAQLNGSITYNGEQMIGASEAALRRVRGNDISFIFQEPMTSLNPLHTLERQITESLTLHQGLRGQAARDRIIQLLTKVGIRDPETRLGAYPHQLSGGQRQRVMIAMALANGPELLIADEPTTALDVTIQAQILDLLAELKRRERMSLLFITHDLAIVRRIADRVCVMQGGEIVEQGPTKTIFDNPQHPYTQKLLGAEPSGRPDPVPEDAKEILTTDKLRIWFPIQRGLLRRTVGHVKAVNEATLSVRQGETLGVVGESGSGKTTLALAIMRLIRSEGPIDFMDQHIPSLGKTELRTLRRDIQIVFQDPFGSLSPRMTIEQIVAEGLTVQGVNSTGRRRRVSEILEEVGLDPAMMHRYPHEFSGGQRQRIAIARAMILRPKLVVLDEPTSALDMTVQVQIVDLLRRLQRDHKLAFLFISHDLKVVRALSHKVMVMKQGDVVEAGRTEDLFANPRTTYTRELMKAAFGDASAA
